Starred links: 1 amine or outer side, 2 acyl side, 3 side chain; linkers in the order of their positions; H or OH if unused. Non-standard residues stand in square brackets, D forms with d. Groups on a side chain read outwards from the residue. No end group written: not given here. *: point of attachment. C20 diacid = O=C(O)CCCCCCCCCCCCCCCCCCC(=O)*; C18 diacid = O=C(O)CCCCCCCCCCCCCCCCC(=O)*; γGlu = O=C(O)[C@H](CCC(=O)[*:2])N[*:1]; αMeF = C[C@](N)(Cc1ccccc1)C(=O)O; AEEA = NCCOCCOCC(=O)O; Aib = CC(C)(N)C(=O)O
Experiments:
[1] = molecular target: human GLP-1 receptor (hGLP-1R) (human, UniProt P43220 24-463); test: cell-based or functional assay
[2] = molecular target: human glucagon receptor (hGCGR) (human, UniProt P47871 26-477); test: cell-based or functional assay
human glucagon receptor (hGCGR), sequence (P47871 26-477): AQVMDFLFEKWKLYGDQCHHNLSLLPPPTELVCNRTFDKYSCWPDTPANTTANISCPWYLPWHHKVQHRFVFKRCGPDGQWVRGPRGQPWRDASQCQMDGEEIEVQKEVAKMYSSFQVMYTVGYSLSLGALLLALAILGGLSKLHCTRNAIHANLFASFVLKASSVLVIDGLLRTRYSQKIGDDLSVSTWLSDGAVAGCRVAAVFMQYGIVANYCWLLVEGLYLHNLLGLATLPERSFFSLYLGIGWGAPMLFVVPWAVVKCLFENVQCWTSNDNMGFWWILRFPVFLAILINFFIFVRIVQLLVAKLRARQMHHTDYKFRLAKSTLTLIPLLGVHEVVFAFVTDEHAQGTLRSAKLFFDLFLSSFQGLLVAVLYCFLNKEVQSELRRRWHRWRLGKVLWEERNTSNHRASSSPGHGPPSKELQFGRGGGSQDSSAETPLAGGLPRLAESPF

hGLP-1R EC50 (pM) [1]	hGluc-R EC50 (pM) [2]	Binder
59.4 pM	108 pM	H[Aib]QGTFTSDVSK[αMeF]LDSK([AEEA-AEEA-γGlu-C18 diacid])RARDFVAWLLE[Aib]G-OH (N-terminus assumed; SMILES CC(C)C[C@H](NC(=O)[C@H](Cc1c[nH]c2ccccc12)NC(=O)[C@H](C)NC(=O)[C@@H](NC(=O)[C@H](Cc1ccccc1)NC(=O)[C@H](CC(=O)O)NC(=O)[C@H](CCCNC(=N)N)NC(=O)[C@H](C)NC(=O)[C@H](CCCNC(=N)N)NC(=O)[C@H](CCCCNC(=O)COCCOCCNC(=O)COCCOCCNC(=O)CC[C@H](NC(=O)CCCCCCCCCCCCCCCCC(=O)O)C(=O)O)NC(=O)[C@H](CO)NC(=O)[C@H](CC(=O)O)NC(=O)[C@H](CC(C)C)NC(=O)[C@](C)(Cc1ccccc1)NC(=O)[C@H](CCCCN)NC(=O)[C@H](CO)NC(=O)[C@@H](NC(=O)[C@H](CC(=O)O)NC(=O)[C@H](CO)NC(=O)[C@@H](NC(=O)[C@H](Cc1ccccc1)NC(=O)[C@@H](NC(=O)CNC(=O)[C@H](CCC(N)=O)NC(=O)C(C)(C)NC(=O)[C@@H](N)Cc1c[nH]cn1)[C@@H](C)O)[C@@H](C)O)C(C)C)C(C)C)C(=O)N[C@@H](CC(C)C)C(=O)N[C@@H](CCC(=O)O)C(=O)NC(C)(C)C(=O)NCC(=O)O) [Peptide 142]
297 pM	2660 pM	H[Aib]QGTFTSDVSK[αMeF]LDTK([AEEA-AEEA-γGlu-C20 diacid])AARDFVQWLLE[Aib]G-NH2 (N-terminus assumed; SMILES CC(C)C[C@H](NC(=O)[C@H](Cc1c[nH]c2ccccc12)NC(=O)[C@H](CCC(N)=O)NC(=O)[C@@H](NC(=O)[C@H](Cc1ccccc1)NC(=O)[C@H](CC(=O)O)NC(=O)[C@H](CCCNC(=N)N)NC(=O)[C@H](C)NC(=O)[C@H](C)NC(=O)[C@H](CCCCNC(=O)COCCOCCNC(=O)COCCOCCNC(=O)CC[C@H](NC(=O)CCCCCCCCCCCCCCCCCCC(=O)O)C(=O)O)NC(=O)[C@@H](NC(=O)[C@H](CC(=O)O)NC(=O)[C@H](CC(C)C)NC(=O)[C@](C)(Cc1ccccc1)NC(=O)[C@H](CCCCN)NC(=O)[C@H](CO)NC(=O)[C@@H](NC(=O)[C@H](CC(=O)O)NC(=O)[C@H](CO)NC(=O)[C@@H](NC(=O)[C@H](Cc1ccccc1)NC(=O)[C@@H](NC(=O)CNC(=O)[C@H](CCC(N)=O)NC(=O)C(C)(C)NC(=O)[C@@H](N)Cc1c[nH]cn1)[C@@H](C)O)[C@@H](C)O)C(C)C)[C@@H](C)O)C(C)C)C(=O)N[C@@H](CC(C)C)C(=O)N[C@@H](CCC(=O)O)C(=O)NC(C)(C)C(=O)NCC(N)=O) [Peptide 515]
264 pM	392 pM	H[Aib]QGTFTSDVSK[αMeF]LDSK([AEEA-AEEA-γGlu-C18 diacid])RAQDFVAWLLE[Aib]G-OH (N-terminus assumed; SMILES CC(C)C[C@H](NC(=O)[C@H](Cc1c[nH]c2ccccc12)NC(=O)[C@H](C)NC(=O)[C@@H](NC(=O)[C@H](Cc1ccccc1)NC(=O)[C@H](CC(=O)O)NC(=O)[C@H](CCC(N)=O)NC(=O)[C@H](C)NC(=O)[C@H](CCCNC(=N)N)NC(=O)[C@H](CCCCNC(=O)COCCOCCNC(=O)COCCOCCNC(=O)CC[C@H](NC(=O)CCCCCCCCCCCCCCCCC(=O)O)C(=O)O)NC(=O)[C@H](CO)NC(=O)[C@H](CC(=O)O)NC(=O)[C@H](CC(C)C)NC(=O)[C@](C)(Cc1ccccc1)NC(=O)[C@H](CCCCN)NC(=O)[C@H](CO)NC(=O)[C@@H](NC(=O)[C@H](CC(=O)O)NC(=O)[C@H](CO)NC(=O)[C@@H](NC(=O)[C@H](Cc1ccccc1)NC(=O)[C@@H](NC(=O)CNC(=O)[C@H](CCC(N)=O)NC(=O)C(C)(C)NC(=O)[C@@H](N)Cc1c[nH]cn1)[C@@H](C)O)[C@@H](C)O)C(C)C)C(C)C)C(=O)N[C@@H](CC(C)C)C(=O)N[C@@H](CCC(=O)O)C(=O)NC(C)(C)C(=O)NCC(=O)O) [Peptide 141]
146 pM	738 pM	H[Aib]QGTFTSDVSK[αMeF]LEAK([AEEA-AEEA-γGlu-γGlu-C18 diacid])AAREFIAWLLET-NH2 (N-terminus assumed; SMILES CC[C@H](C)[C@H](NC(=O)[C@H](Cc1ccccc1)NC(=O)[C@H](CCC(=O)O)NC(=O)[C@H](CCCNC(=N)N)NC(=O)[C@H](C)NC(=O)[C@H](C)NC(=O)[C@H](CCCCNC(=O)COCCOCCNC(=O)COCCOCCNC(=O)CC[C@H](NC(=O)CC[C@H](NC(=O)CCCCCCCCCCCCCCCCC(=O)O)C(=O)O)C(=O)O)NC(=O)[C@H](C)NC(=O)[C@H](CCC(=O)O)NC(=O)[C@H](CC(C)C)NC(=O)[C@](C)(Cc1ccccc1)NC(=O)[C@H](CCCCN)NC(=O)[C@H](CO)NC(=O)[C@@H](NC(=O)[C@H](CC(=O)O)NC(=O)[C@H](CO)NC(=O)[C@@H](NC(=O)[C@H](Cc1ccccc1)NC(=O)[C@@H](NC(=O)CNC(=O)[C@H](CCC(N)=O)NC(=O)C(C)(C)NC(=O)[C@@H](N)Cc1c[nH]cn1)[C@@H](C)O)[C@@H](C)O)C(C)C)C(=O)N[C@@H](C)C(=O)N[C@@H](Cc1c[nH]c2ccccc12)C(=O)N[C@@H](CC(C)C)C(=O)N[C@@H](CC(C)C)C(=O)N[C@@H](CCC(=O)O)C(=O)N[C@H](C(N)=O)[C@@H](C)O) [Peptide 517]

The next lines start with the binder.

Binder	hGLP-1R EC50 (pM) [1]	hGluc-R EC50 (pM) [2]
H[Aib]QGTFTSDVSK[αMeF]LDSK([γGlu-γGlu-AEEA-AEEA-γGlu-γGlu-C20 diacid])RAQDFVRWLLE[Aib]G-OH [Peptide 139]	630 pM	984 pM
H[Aib]QGTFTSDVSK[αMeF]LDSK([γGlu-γGlu-AEEA-AEEA-γGlu-γGlu-C18 diacid])RAQDFVRWLLEG[Aib]-OH (N-terminus assumed; SMILES CC(C)C[C@H](NC(=O)[C@H](CC(C)C)NC(=O)[C@H](Cc1c[nH]c2ccccc12)NC(=O)[C@H](CCCNC(=N)N)NC(=O)[C@@H](NC(=O)[C@H](Cc1ccccc1)NC(=O)[C@H](CC(=O)O)NC(=O)[C@H](CCC(N)=O)NC(=O)[C@H](C)NC(=O)[C@H](CCCNC(=N)N)NC(=O)[C@H](CCCCNC(=O)CC[C@H](NC(=O)CC[C@H](NC(=O)COCCOCCNC(=O)COCCOCCNC(=O)CC[C@H](NC(=O)CC[C@H](NC(=O)CCCCCCCCCCCCCCCCC(=O)O)C(=O)O)C(=O)O)C(=O)O)C(=O)O)NC(=O)[C@H](CO)NC(=O)[C@H](CC(=O)O)NC(=O)[C@H](CC(C)C)NC(=O)[C@](C)(Cc1ccccc1)NC(=O)[C@H](CCCCN)NC(=O)[C@H](CO)NC(=O)[C@@H](NC(=O)[C@H](CC(=O)O)NC(=O)[C@H](CO)NC(=O)[C@@H](NC(=O)[C@H](Cc1ccccc1)NC(=O)[C@@H](NC(=O)CNC(=O)[C@H](CCC(N)=O)NC(=O)C(C)(C)NC(=O)[C@@H](N)Cc1c[nH]cn1)[C@@H](C)O)[C@@H](C)O)C(C)C)C(C)C)C(=O)N[C@@H](CCC(=O)O)C(=O)NCC(=O)NC(C)(C)C(=O)O) [Peptide 137]	143 pM	268 pM
H[Aib]QGTFTSDVSK[αMeF]LDSK([γGlu-γGlu-AEEA-AEEA-γGlu-γGlu-C18 diacid])RAQDFVRWLLE[Aib]G-OH (N-terminus assumed; SMILES CC(C)C[C@H](NC(=O)[C@H](Cc1c[nH]c2ccccc12)NC(=O)[C@H](CCCNC(=N)N)NC(=O)[C@@H](NC(=O)[C@H](Cc1ccccc1)NC(=O)[C@H](CC(=O)O)NC(=O)[C@H](CCC(N)=O)NC(=O)[C@H](C)NC(=O)[C@H](CCCNC(=N)N)NC(=O)[C@H](CCCCNC(=O)CC[C@H](NC(=O)CC[C@H](NC(=O)COCCOCCNC(=O)COCCOCCNC(=O)CC[C@H](NC(=O)CC[C@H](NC(=O)CCCCCCCCCCCCCCCCC(=O)O)C(=O)O)C(=O)O)C(=O)O)C(=O)O)NC(=O)[C@H](CO)NC(=O)[C@H](CC(=O)O)NC(=O)[C@H](CC(C)C)NC(=O)[C@](C)(Cc1ccccc1)NC(=O)[C@H](CCCCN)NC(=O)[C@H](CO)NC(=O)[C@@H](NC(=O)[C@H](CC(=O)O)NC(=O)[C@H](CO)NC(=O)[C@@H](NC(=O)[C@H](Cc1ccccc1)NC(=O)[C@@H](NC(=O)CNC(=O)[C@H](CCC(N)=O)NC(=O)C(C)(C)NC(=O)[C@@H](N)Cc1c[nH]cn1)[C@@H](C)O)[C@@H](C)O)C(C)C)C(C)C)C(=O)N[C@@H](CC(C)C)C(=O)N[C@@H](CCC(=O)O)C(=O)NC(C)(C)C(=O)NCC(=O)O) [Peptide 138]	104 pM	184 pM
H[Aib]QGTFTSDVSK[αMeF]LDSK([γGlu-γGlu-AEEA-AEEA-γGlu-γGlu-C18 diacid])RARDFVRWLLE[Aib]G-OH (N-terminus assumed; SMILES CC(C)C[C@H](NC(=O)[C@H](Cc1c[nH]c2ccccc12)NC(=O)[C@H](CCCNC(=N)N)NC(=O)[C@@H](NC(=O)[C@H](Cc1ccccc1)NC(=O)[C@H](CC(=O)O)NC(=O)[C@H](CCCNC(=N)N)NC(=O)[C@H](C)NC(=O)[C@H](CCCNC(=N)N)NC(=O)[C@H](CCCCNC(=O)CC[C@H](NC(=O)CC[C@H](NC(=O)COCCOCCNC(=O)COCCOCCNC(=O)CC[C@H](NC(=O)CC[C@H](NC(=O)CCCCCCCCCCCCCCCCC(=O)O)C(=O)O)C(=O)O)C(=O)O)C(=O)O)NC(=O)[C@H](CO)NC(=O)[C@H](CC(=O)O)NC(=O)[C@H](CC(C)C)NC(=O)[C@](C)(Cc1ccccc1)NC(=O)[C@H](CCCCN)NC(=O)[C@H](CO)NC(=O)[C@@H](NC(=O)[C@H](CC(=O)O)NC(=O)[C@H](CO)NC(=O)[C@@H](NC(=O)[C@H](Cc1ccccc1)NC(=O)[C@@H](NC(=O)CNC(=O)[C@H](CCC(N)=O)NC(=O)C(C)(C)NC(=O)[C@@H](N)Cc1c[nH]cn1)[C@@H](C)O)[C@@H](C)O)C(C)C)C(C)C)C(=O)N[C@@H](CC(C)C)C(=O)N[C@@H](CCC(=O)O)C(=O)NC(C)(C)C(=O)NCC(=O)O) [Peptide 136]	45.2 pM	509 pM
